The text below walks through data of PMC11994318, “In vitro characterization of the yeast DEAH/RHA RNA helicase Dhr1” (The Journal of Biological Chemistry, 2025).

The chains are these.
B1: ΔN-Dhr1-ΔSKTTD (domain or fragment, Saccharomyces cerevisiae, UniProt Q04217 376-1267, looked up)
chain: VEVSRSDEIQKARIQLPVFGEEHKIMEAIHHNDVVIICGETGSGKTTQVPQFLYEAGFGAEDSPDYPGMVGITQPRRVAAVSMAERVANELGDHGHKVGYQIRFDSTAKEDTKVKFMTDGVLLREMMHDFKLTKYSSIIIDEAHERNINTDILIGMLSRCVRLRAKLHKENPIEHKKLKLIIMSATLRVSDFSENKTLFPIAPPVLQVDARQFPVSIHFNRRTAFNYTDEAFRKTCKIHQKLPPGAILVFLTGQQEITHMVKRLRKEFPFKKNSKYNKDLETPVSKMGINLEAEDIDFSVQVIDQDKFKSAIRYEEDEGNSGNGEDEEDEEEEGFEEVLTEGQTANDPLYVLPLYSLLPTKEQMRVFQKPPQGSRLCIVATNVAETSLTIPGVRYVVDSGRSKERKYNESNGVQSFEVGWVSKASANQRSGRAGRTGPGHCYRLYSSAVFEHDFEQFSKPEILRMPVESIVLQMKSMAIHNIINFPFPTPPDRVALSKAIQLLQYLGALDNKEMITEDGKKMSLFPLSPRFSKMLLVSDEKACLPYIVAIVSALSVGDPFINEFELGINEISRKPNPDENLDDKIREHDESTPGMDPELKKELRSKFYKSRSQFSKLDKFSDVFRLLSVVSAMDYVPKEQKEIFMKKNFLRGKLMEEIVKLRKQLMYIIKSNTSKENIAVVIRNEDLKSDIPSVIQIKLLKQMICAGFVDHVAVRADVLFPDDAKITNRTSIINIPYIPVLATRTPNIEDCFVYIHPTSILNNLGEMPPKYMLYYSLHLGGNNKTRMNTLCDIASTPLANIARKGLLLTYSKPLTGQGLKTVNLSPTERYCYVVPRFGSTVDNDLKIGWDLNPIAVHQKKQKGQWTVIKFITRKGFQTITGEEKEKK
notes: Dhr1 (Ecm16) of Saccharomyces cerevisiae, residues 1-375 deleted and the five residues SKTTD (aa 666-670) of loop 1 deleted; also called ΔN-ΔSKTTD; ΔNΔSKTTD; source: E. coli Codon+ BL21 (DE3) RIL (AJE854), purified (HisTrap FF, HiTrap Capto SP)
B2: ΔN-Dhr1-WT (Δ1 to 375-Dhr1) (domain or fragment, Saccharomyces cerevisiae, UniProt Q04217 376-1267, looked up)
chain: VEVSRSDEIQKARIQLPVFGEEHKIMEAIHHNDVVIICGETGSGKTTQVPQFLYEAGFGAEDSPDYPGMVGITQPRRVAAVSMAERVANELGDHGHKVGYQIRFDSTAKEDTKVKFMTDGVLLREMMHDFKLTKYSSIIIDEAHERNINTDILIGMLSRCVRLRAKLHKENPIEHKKLKLIIMSATLRVSDFSENKTLFPIAPPVLQVDARQFPVSIHFNRRTAFNYTDEAFRKTCKIHQKLPPGAILVFLTGQQEITHMVKRLRKEFPFKKNSKYNKDLETPVSKMGINSKTTDLEAEDIDFSVQVIDQDKFKSAIRYEEDEGNSGNGEDEEDEEEEGFEEVLTEGQTANDPLYVLPLYSLLPTKEQMRVFQKPPQGSRLCIVATNVAETSLTIPGVRYVVDSGRSKERKYNESNGVQSFEVGWVSKASANQRSGRAGRTGPGHCYRLYSSAVFEHDFEQFSKPEILRMPVESIVLQMKSMAIHNIINFPFPTPPDRVALSKAIQLLQYLGALDNKEMITEDGKKMSLFPLSPRFSKMLLVSDEKACLPYIVAIVSALSVGDPFINEFELGINEISRKPNPDENLDDKIREHDESTPGMDPELKKELRSKFYKSRSQFSKLDKFSDVFRLLSVVSAMDYVPKEQKEIFMKKNFLRGKLMEEIVKLRKQLMYIIKSNTSKENIAVVIRNEDLKSDIPSVIQIKLLKQMICAGFVDHVAVRADVLFPDDAKITNRTSIINIPYIPVLATRTPNIEDCFVYIHPTSILNNLGEMPPKYMLYYSLHLGGNNKTRMNTLCDIASTPLANIARKGLLLTYSKPLTGQGLKTVNLSPTERYCYVVPRFGSTVDNDLKIGWDLNPIAVHQKKQKGQWTVIKFITRKGFQTITGEEKEKK
notes: Dhr1 (Ecm16), DEAH/RHA RNA helicase of Saccharomyces cerevisiae, residues 1-375 deleted; Cloned into pET21a(+) with a C-terminal Hisx6 tag; also called ΔN-WT; dhr1-Δ1–375 (ΔN); source: E. coli Codon+ BL21 (DE3) RIL (AJE854), purified (HisTrap FF, HiTrap Capto SP)
B3: ΔN-Dhr1-YCK (RecA2 surface mutant) (domain or fragment, Saccharomyces cerevisiae, UniProt Q04217 376-1267, looked up)
chain: B2 chain with H218Y, R221C, E456K
notes: Dhr1 (Ecm16) of Saccharomyces cerevisiae, residues 1-375 deleted, with three mutations on the RecA2 surface; also called ΔN-Dhr1-RecA2; ΔN-Dhr1-RecA2-mutants; source: E. coli Codon+ BL21 (DE3) RIL (AJE854), purified (HisTrap FF, HiTrap Capto SP)
B4: Utp14-A′ (UTP14 746–780), 6-FAM-labelled peptide (peptide)
peptide: 6FAM-VFMFKQQDVIAEAFAGDDVVAEFQEEKKRVIDDED
notes: also called Utp14 fragment; source: synthetic peptide (Genscript)

Substitutions are numbered along the chain they refer to. Ends that are not written are not given here. * marks the point of attachment. 6FAM = O=C1OC2(c3ccc(O)cc3Oc3cc(O)ccc32)c2cc(C(=O)*)ccc21

Holding throughout (conditions): both partners purified
Experiment [1] has as its target T1, Utp14-G (aa 710–800), fusion to maltose binding protein (Saccharomyces cerevisiae, UniProt Q04500 710-800).
T1 construct: Purified as a fusion to MBP; the tag is cleavable with TEV protease but no cleavage is described; source: E. coli Codon+ BL21 (DE3) RIL (AJE854), purified (HisTrap HP, HiTrap Q HP); not shown: MBP, N-terminal, kept
T1 sequence (looked up): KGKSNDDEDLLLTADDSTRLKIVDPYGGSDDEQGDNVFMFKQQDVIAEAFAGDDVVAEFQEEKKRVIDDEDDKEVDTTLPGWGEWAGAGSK
Briefly: mass photometry; Dhr1 variant and Utp14-G mixed at a 1:1 ratio; TwoMP instrument, room temperature (25.3 °C); 40 mM Tris–HCl pH 8.0, 40 mM KCl, 150 mM NaCl, 2 mM NaOAc, 2 mM DTT, 10 mM MgCl2, 4% glycerol.

Experiment [2] deals with B3. Briefly: fluorescence polarisation; 1.25 nM 6-FAM-labelled Utp14-A′ peptide titrated with Dhr1 variants; 25 °C; 40 mM Tris–HCl pH 8.0, 40 mM KCl, 150 mM NaCl, 2 mM NaOAc, 2 mM DTT, 10 mM MgCl2, 4% glycerol, 0.05% Tween 20; saturation not reached, no Kd calculated.
Experiment [3] concerns the target B2. Described as above.
Experiment [4] deals with B1. The description is as above.

On to B1, for which the percent complex in experiment [1] worked out at 48%. The same measure, in the same setting: under B2 stands 23%; under B3, 16%. Consider B4, for which the binding result in experiment [2], in experiment [3] and in experiment [4] was “binds” in each case.
